According to patent US20080119424A1 (published 2008):
Where a chain is given by its changes, count along the chain named.

Key:
[1] = biological target: T1, endogenous RARα (Retinoic Acid Receptor alpha) of mouse cells (mouse (endogenous in mouse embryonic …, UniProt P11416 1-462, limits assumed)); experiment: co-immunoprecipitation, immunoblot for RARα
T1 construct: Endogenous protein detected by immunoblot with anti-RARα (C-20)
T1 sequence (looked up): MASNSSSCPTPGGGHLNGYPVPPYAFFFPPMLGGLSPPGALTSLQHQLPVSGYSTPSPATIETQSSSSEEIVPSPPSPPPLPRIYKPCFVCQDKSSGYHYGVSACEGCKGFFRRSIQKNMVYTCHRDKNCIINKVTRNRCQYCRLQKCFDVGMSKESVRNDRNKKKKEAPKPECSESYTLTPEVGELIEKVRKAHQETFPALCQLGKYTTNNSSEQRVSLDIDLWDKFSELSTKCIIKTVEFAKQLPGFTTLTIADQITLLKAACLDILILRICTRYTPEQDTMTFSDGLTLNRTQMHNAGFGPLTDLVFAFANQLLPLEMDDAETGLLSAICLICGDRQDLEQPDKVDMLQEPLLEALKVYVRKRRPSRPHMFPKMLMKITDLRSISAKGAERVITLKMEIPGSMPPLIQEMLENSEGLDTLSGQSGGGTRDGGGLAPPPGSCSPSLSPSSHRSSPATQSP
Protocol: Proteins were transferred to polyvinylidine difluoride membranes (Immobilon P, Millipore) and Western blots were probed with the indicated antibodies. For TAP (co-)immunoprecipitations cells were lysed in ELB buffer (0.25 M NaCl, 0.1% NP-40, 50 mM HEPES pH 7.3) supplemented with protease inhibitors and PMSF.

VP16-RARα LBD = biological target: T2, VP16-RARα LBD (UniProt P10276 154-462); experiment: mammalian two-hybrid assay (luciferase) in the presence of RA
T2 construct: domain: LBD
T2 sequence: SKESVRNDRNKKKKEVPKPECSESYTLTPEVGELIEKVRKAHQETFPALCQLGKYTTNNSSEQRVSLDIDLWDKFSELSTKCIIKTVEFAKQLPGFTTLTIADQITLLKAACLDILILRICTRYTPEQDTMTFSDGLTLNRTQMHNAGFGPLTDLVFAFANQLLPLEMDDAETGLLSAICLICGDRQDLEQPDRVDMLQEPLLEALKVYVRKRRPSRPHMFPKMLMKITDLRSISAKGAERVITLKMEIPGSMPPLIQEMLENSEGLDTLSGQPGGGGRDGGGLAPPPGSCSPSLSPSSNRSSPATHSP

B1: TAP-PRAME-LREVV mutant protein (other)
chain: MERRRLRGSIQSRYISMSVWTSPRRLVELAGQSLLKDEALAIAALELLPRELFPPLFMAAFDGRHSQTLKAMVQAWPFTCLPLGVLMKGQHLHLETFKAVLDGLDVLLAQEVRPRRWKLQVLDLRKNSHQDFWTVWSGNRASLYSFPEPEAAQPMTKKRKVDGLSTEAEQPFIPVEVLVDLFLKEGACDELFSYLIEKVKRKKNVLRLCCKKLKIFAMPMQDIKMILKMVQLDSIEDLEVTCTWKLPTLAKFSPYLGQMINLRRLLLSHIHASSYISPEKEEQYIAQFTSQFLSLQCLQALYVDSLFFLRGRLDQLLRHVMNPLETLSITNCRLSEGDVMHLSQSPSVSQLSVLSLSGVMLTDVSPEPLQALLERASATLQDLVFDECGITDDQLLALLPSLSHCSQLTTLSFYGNSISISALQSLLQHLIGLSNLTHVLYPVPLESYEDIHGTLHLERLAYLHARLREVVCELGRPSMVWLSANPCPHCGDRTFYDPEPILCPCFMPN
notes: not shown: TAP tag
[1]
  binding result: no binding

B2: PRAME-ΔLXXLL (other)
chain: B1 chain with L107V, L108V, L262V, L316V, L317V, L369V, L398V, L399V, L426V, L427V
notes: also called PRAME mutant in which all 7 NR boxes were mutated
[1]
  binding result: no binding

B3: Gal4-… (416-509) (other, not shown: large carriers; small tags and cut ends)
chain: NSISISALQSLLQHLIGLSNLTHVLYPVPLESYEDIHGTLHLERLAYLHARLREVVCELGRPSMVWLSANPCPHCGDRTFYDPEPILCPCFMPN
notes: also called box 7 mutant
VP16-RARα LBD
  binding result: no binding
